Test results from FireProtDB (doi:10.1016/0022-2836(91)90566-o).

Conditions: Enterobacteria phage fd; pH 7; 25 °C; GdnHCl; CD; MOPS 50 mM; NaCl 100 mM; reversible: yes; whole UniProt chain shown

B1: DNA-Binding protein G5P wild type, P69542 (protein)
chain: MIKVEIKPSQAQFTTRSGVSRQGKPYSLNEQLCYVDLGNEYPVLVKITLDEGQPAYAPGLYTVHLSSFKVGQFGSLMIDRLRLVPAK
With B1 as the protein, how does the denaturant m value read?
The denaturant m value was 3.6 kcal/mol/M.

And the “denaturant midpoint (higher = more stable)” value?
The value was 2.61 M.

And the unfolding free energy?
Its unfolding free energy is 9 kcal/mol.
